Read-outs that look alike come from different tables or passages of the source.
Columns and labels:
[1] = target: T1, human PVRIG expressed on cells (human, UniProt Q6DKI7 41-326); assay: cell-based or functional assay
T1 sequence (looked up): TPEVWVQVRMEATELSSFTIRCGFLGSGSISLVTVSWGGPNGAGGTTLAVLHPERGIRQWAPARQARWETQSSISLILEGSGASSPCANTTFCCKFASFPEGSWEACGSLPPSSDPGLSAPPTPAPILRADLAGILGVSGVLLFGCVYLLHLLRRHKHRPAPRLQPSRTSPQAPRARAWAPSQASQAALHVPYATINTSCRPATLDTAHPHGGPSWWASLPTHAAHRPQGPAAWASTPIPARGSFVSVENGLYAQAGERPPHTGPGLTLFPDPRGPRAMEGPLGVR

[2] = target: T1, human PVRIG expressed on cells; assay: cell-based or functional assay; remark: listed apart in the source
[3] = target: T1, human PVRIG expressed on cells; assay: cell-based or functional assay; remark: listed apart in the source
[4] = target: T1, human PVRIG expressed on cells; assay: cell-based or functional assay; remark: listed apart in the source
[5] = target: cynomolgus monkey TIGIT recombinant protein (cynomolgus monkey, UniProt A0A7N9I9V4 89-209); assay: ELISA, coated antigen
Chain of cynomolgus monkey TIGIT recombinant protein (A0A7N9I9V4 entry or part of it): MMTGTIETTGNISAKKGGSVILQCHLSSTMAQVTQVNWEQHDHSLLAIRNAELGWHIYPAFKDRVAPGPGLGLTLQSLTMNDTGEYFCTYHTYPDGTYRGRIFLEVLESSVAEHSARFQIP
Method: (§1) A human, cynomolgus monkey, or mouse PVRIG protein (at a concentration of 1 μg/mL) was coated on a 96-well microplate at 100 μL per well, and incubated overnight at 4° C. The plate was washed three times with wash buffer at 250 μL per well. For each wash, the plate was shaken for 10 s to ensure adequate cleaning. A blocking solution (PBS+0.05% Tween20+1% BSA) was added at 300 μL/well, and the plate was incubated at room temperature for 1 h. The plate was washed three times with wash buffer at 250 μL per well. For each wash, the plate was shaken for 10 s to ensure adequate cleaning. Dilutions of the test anti-PVRIG antibodies were added at 100 μL/well. The plate was incubated at 37° C. for 1 h. The plate was washed three times with wash buffer at 250 μL per well. The […] anti-human IgG secondary antibody (Sigma, A8667) was added at 100 μL per well. The plate was incubated at 37° C. for 1 h. The plate was washed three times with wash buffer at 250 μL per well. TMB was added at 100 μL/well, and the plate was incubated in the dark for 15 min. 0.16 M sulfuric acid was added at 50 μL/well. The OD values at 450 nm were read by using a Thermo MultiSkanFc microplate reader, and the EC₅₀ values of the binding of the anti-PVRIG antibodies to PVRIG were calculated.
(§2) Similarly to Examples 4, 5 and 6, the binding of humanized anti-PVRIG/TIGIT bispecific antibodies to human and cynomolgus monkey TIGIT and blocking of binding of human TIGIT to ligand were detected, where PVRIG protein was replaced with TIGIT and PVRL2 was replaced with PVR.

[6] = target: T2, human TIGIT recombinant protein (human, UniProt Q495A1 22-141, limits assumed); assay: ELISA, coated antigen
T2 construct: construct not described; also called human TIGT recombinant protein
T2 sequence (looked up): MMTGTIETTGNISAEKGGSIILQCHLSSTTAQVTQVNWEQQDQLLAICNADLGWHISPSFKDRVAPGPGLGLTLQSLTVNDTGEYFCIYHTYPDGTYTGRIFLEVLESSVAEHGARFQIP
Method: as §1, §2

[7] = target: T3, human TIGIT expressed on cells (human, UniProt Q495A1 22-244); assay: FACS, cells overexpressing target
T3 construct: whole, on cells; also called cells overexpressing human TIGIT
T3 sequence (looked up): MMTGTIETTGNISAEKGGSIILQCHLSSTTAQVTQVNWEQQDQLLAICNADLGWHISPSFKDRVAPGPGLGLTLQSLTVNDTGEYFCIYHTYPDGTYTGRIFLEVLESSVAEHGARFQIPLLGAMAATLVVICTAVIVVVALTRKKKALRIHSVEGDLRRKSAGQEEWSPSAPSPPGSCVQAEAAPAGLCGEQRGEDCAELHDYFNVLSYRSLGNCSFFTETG
Method: (§3) The expression plasmid carrying human or cynomolgus monkey PVRIG gene sequence was transfected into HEK293 cells, and the over-expressing stable transfection monoclonal cell strain was obtained by antibiotic screening and infinite dilution. Overexpressing cells were seeded into a 96-well plate at 2×10⁵ cells/per well. The cells were centrifuged at 300 g for 5 min, the supernatant was then removed, 100 μL of the test antibody was added, and the mixture was incubated at 4° C. for 1 h. The mixture was centrifuged, the supernatant was removed, the plate was washed 3 times with 200 μL of wash buffer (PBS+2% FBS), and then 100 μL of an anti-human IgG secondary antibody (Invitrogen, A-11013) labeled with Alexa Fluor 488 diluted at 1:500 was added. The mixture was incubated at 4° C. for 1 h. The plate was centrifuged, and the supernatant was removed. The plate was washed 3 times with 200 μL of wash buffer (PBS+2% FBS). The cells were resuspended in 100 μL of PBS and tested on a flow cytometer (BD FACS Calibur or BD FACS Canto_II).
as §2

[8] = target: T4, cynomolgus monkey TIGIT expressed on cells (cynomolgus monkey, UniProt A0A7N9I9V4 89-312); assay: FACS, cells overexpressing target
T4 construct: whole, on cells; also called cells overexpressing cynomolgus monkey TIGIT
T4 sequence (A0A7N9I9V4 entry or part of it): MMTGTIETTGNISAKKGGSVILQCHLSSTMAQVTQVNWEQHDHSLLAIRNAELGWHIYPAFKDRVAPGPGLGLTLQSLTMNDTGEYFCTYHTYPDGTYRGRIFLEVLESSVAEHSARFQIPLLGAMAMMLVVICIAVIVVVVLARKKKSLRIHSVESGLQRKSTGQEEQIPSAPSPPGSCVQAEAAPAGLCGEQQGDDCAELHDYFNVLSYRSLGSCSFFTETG
Method: as §3, §2

[9] = target: T5, cynomolgus monkey PVRIG expressed on cells (cynomolgus monkey, UniProt A0A2K5WVV8 1-322); assay: FACS, cells overexpressing target
T5 construct: whole, on cells; also called Monkey PVRIG FACS; cells overexpressing cynomolgus monkey PVRIG
T5 sequence: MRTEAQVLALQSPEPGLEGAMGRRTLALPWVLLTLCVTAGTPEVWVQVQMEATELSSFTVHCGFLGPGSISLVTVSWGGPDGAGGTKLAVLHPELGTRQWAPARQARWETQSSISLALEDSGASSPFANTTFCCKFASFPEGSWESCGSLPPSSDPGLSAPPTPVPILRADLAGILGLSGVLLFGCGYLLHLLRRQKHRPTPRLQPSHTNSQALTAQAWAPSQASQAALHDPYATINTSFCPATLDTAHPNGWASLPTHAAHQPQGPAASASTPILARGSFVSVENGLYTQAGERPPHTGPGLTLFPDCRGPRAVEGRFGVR
Method: as §3
Binding of the humanized anti-PVRIG/TIGIT bispecific antibodies to human and cynomolgus monkey PVRIG and their blocking of the ligand of human PVRIG were detected according to the methods of Examples 4, 5 and 6.

B1: anti-PVRIG antibody 38 (antibody, human IgG4 S228P, F234A L235A, V domains shown)
VH: QVQLVESGGGSVQAGGSLRLSCAASPSTYGPSDMAWFRQAPGKQREGVATISAAGRLTYYTDSVRGRFTISRDNAKNTMYLQMNSLKPEDTAMYYCAADFAGGSSLFADYKYWGQGTQVTVSS
notes: no light chain
reporter gene activity, fold of the positive antibody Tab5 [1]: 3.7 to 18.5 fold
PVRIG reporter gene cell activity EC50 [2]: 0.2 nM
NK92 killing of K562, killing activity (%), 20 nM antibody [3]: 29%
NK92 killing of K562, killing activity (%), 100 nM antibody [3]: 27%

B2: anti-PVRIG antibody 151 (antibody, human IgG4 S228P, F234A L235A, V domains shown)
VH: HVQLVESGGGSVQAGGSLRLSCVASASGFTYRPYCMAWFRQAPGKEREAVAGIDIFGGTTYADSVKGRFTASRDNAGFSLFLQMNDLKPEDTAMYYCAAGDSPDGRCPPLGQGLNYWGQGTQVTVSS
notes: no light chain
reporter gene activity, fold of the positive antibody Tab5 [1]: 3.7 to 18.5 fold
PVRIG reporter gene cell activity EC50 [2]: 0.04 nM
NK92 killing of K562, killing activity (%), 20 nM antibody [3]: 35%
NK92 killing of K562, killing activity (%), 100 nM antibody [3]: 33%
NK92 killing of K562, killing activity (%), 4 nM antibody [4]: 20.9%
NK92 killing of K562, killing activity (%), 20 nM antibody [4]: 22.9%
NK92 killing of K562, killing activity (%), 100 nM antibody [4]: 24.2%

B3: humanized anti-PVRIG/TIGIT bispecific antibody 1708-20H5 (bispecific antibody, human IgG4 S228P, kappa)
heavy: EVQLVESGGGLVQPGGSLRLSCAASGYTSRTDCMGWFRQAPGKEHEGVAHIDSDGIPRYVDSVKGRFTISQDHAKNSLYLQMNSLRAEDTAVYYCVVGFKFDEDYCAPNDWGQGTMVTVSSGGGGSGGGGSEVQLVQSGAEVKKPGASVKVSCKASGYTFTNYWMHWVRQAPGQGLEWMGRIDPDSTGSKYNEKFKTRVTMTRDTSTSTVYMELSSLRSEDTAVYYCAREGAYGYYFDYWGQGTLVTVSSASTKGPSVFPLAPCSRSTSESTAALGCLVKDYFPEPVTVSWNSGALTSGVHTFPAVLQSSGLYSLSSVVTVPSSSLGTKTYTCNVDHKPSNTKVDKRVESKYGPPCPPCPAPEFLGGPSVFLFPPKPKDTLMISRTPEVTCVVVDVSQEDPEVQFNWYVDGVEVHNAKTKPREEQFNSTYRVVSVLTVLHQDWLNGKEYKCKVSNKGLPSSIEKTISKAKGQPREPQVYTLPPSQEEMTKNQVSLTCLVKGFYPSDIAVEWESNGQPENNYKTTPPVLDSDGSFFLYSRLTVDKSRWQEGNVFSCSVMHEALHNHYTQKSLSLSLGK
light: DIQMTQSPSSLSASVGDRVTITCRASENIYSYLAWYQQKPGKSPKLLIYNARTLAEGVPSRFSGSGSGTDFTLTISSLQPEDFATYYCQYHSGSPLPFGGGTKVEIKRTVAAPSVFIFPPSDEQLKSGTASVVCLLNNFYPREAKVQWKVDNALQSGNSQESVTEQDSKDSTYSLSSTLTLSKADYEKHKVYACEVTHQGLSSPVTKSFNRGEC
EC50 [5]: 0.112 nM
EC50 [6]: 0.145 nM
EC50 [7]: 0.01 nM
EC50 [8]: 0.009 nM
EC50 [9]: 0.07 nM

B4: humanized anti-PVRIG/TIGIT bispecific antibody 1708-30H2 (bispecific antibody, human IgG4 S228P, kappa)
heavy: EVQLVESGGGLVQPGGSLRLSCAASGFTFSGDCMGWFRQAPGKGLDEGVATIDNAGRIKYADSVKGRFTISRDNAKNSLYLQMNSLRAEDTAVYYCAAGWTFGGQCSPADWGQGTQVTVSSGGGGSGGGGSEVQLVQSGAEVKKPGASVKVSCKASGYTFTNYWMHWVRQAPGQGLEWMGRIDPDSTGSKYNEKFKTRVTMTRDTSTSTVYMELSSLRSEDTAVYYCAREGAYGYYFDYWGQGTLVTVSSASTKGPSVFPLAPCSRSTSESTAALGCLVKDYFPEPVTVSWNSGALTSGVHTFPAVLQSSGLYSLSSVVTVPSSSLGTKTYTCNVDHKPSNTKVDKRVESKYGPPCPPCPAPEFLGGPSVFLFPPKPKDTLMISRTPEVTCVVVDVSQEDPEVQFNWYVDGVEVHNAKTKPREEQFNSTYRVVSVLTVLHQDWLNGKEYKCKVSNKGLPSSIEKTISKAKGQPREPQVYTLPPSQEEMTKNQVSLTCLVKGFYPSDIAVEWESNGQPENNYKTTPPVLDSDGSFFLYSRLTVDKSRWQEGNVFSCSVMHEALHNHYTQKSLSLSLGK
light: DIQMTQSPSSLSASVGDRVTITCRASENIYSYLAWYQQKPGKSPKLLIYNARTLAEGVPSRFSGSGSGTDFTLTISSLQPEDFATYYCQYHSGSPLPFGGGTKVEIKRTVAAPSVFIFPPSDEQLKSGTASVVCLLNNFYPREAKVQWKVDNALQSGNSQESVTEQDSKDSTYSLSSTLTLSKADYEKHKVYACEVTHQGLSSPVTKSFNRGEC
EC50 [5]: 0.114 nM
EC50 [6]: 0.153 nM
EC50 [7]: 0.01 nM
EC50 [8]: 0.009 nM
EC50 [9]: 3.54 nM

B5: anti-PVRIG antibody 30 (antibody, human IgG4 S228P, F234A L235A, V domains shown)
VH: HVQLVESGGGSVQAGGSLRLSCEASGYSYSGDCMGWFRRAPGKERDEGVATIDNAGRIKYADSVKGRFTISHGNGKYILYLQMNSLKPEDTDMYYCAAGWTFGGNCSPADWGQGTQVTVSS
notes: no light chain
PVRIG reporter gene cell activity EC50 [2]: 0.06 nM
NK92 killing of K562, killing activity (%), 20 nM antibody [3]: 36%
NK92 killing of K562, killing activity (%), 100 nM antibody [3]: 39%

B6: positive antibody Tab5 (antibody, human IgG4 S228P, kappa, F234A L235A, V domains shown)
VH: EVQLVESGGGVVKPGGSLRLSCAASGFTFGTSSMNWVRQAPGKGLEWVAVISFDGTEIHYADSVKGRFTISRDNSKSTVFLQMNSLRPDDTALYYCAKGSGNIYFYSGMDVWGQGTTVTVSS
VL: DIQMTQSPSTLSASVGDRVTITCRAGQSISGWLAWFQQKPGKAPNLLIYETSTLESGVPSRFSGSGSGTEYTLTISSLQPDDFATYYCQQYYSYPLTFGQGTKVEIKR
notes: Variable regions of CPA.7.021 (WO2016134333A1) on human IgG4 (S228P/F234A/L235A/K447A) and human kappa constant regions
PVRIG reporter gene cell activity EC50 [2]: 0.74 nM
binding result [5]: no binding
binding result [6]: no binding
binding result [7]: no binding
binding result [8]: no binding
NK92 killing of K562, killing activity (%), 20 nM antibody [3]: 32%
NK92 killing of K562, killing activity (%), 100 nM antibody [3]: 32%

B7: anti-PVRIG antibody 39 (antibody, human IgG4 S228P, F234A L235A, V domains shown)
VH: QVQLVESGGGSVQAGGSLRLSCAASRYTSRTDCMGWFRQAPGKEREGVAHIDSDGIPRYVESVKGRFTISQDHAKNTLYLQMNSLKPEDSATYYCVVGFKFGDYCAPNDWGQGTQVTVSS
notes: no light chain
PVRIG reporter gene cell activity EC50 [2]: 0.06 nM
NK92 killing of K562, killing activity (%), 20 nM antibody [3]: 32%
NK92 killing of K562, killing activity (%), 100 nM antibody [3]: 30%
NK92 killing of K562, killing activity (%), 4 nM antibody [4]: 21.3%
NK92 killing of K562, killing activity (%), 20 nM antibody [4]: 22.7%
NK92 killing of K562, killing activity (%), 100 nM antibody [4]: 22.8%

Source: patent US20240376207A1 (JIANGSU HENGRUI PHARMACEUTICALS, published 2024)
